{
  "source": "patent US20160201097A1",
  "about": "“Materials and Methods of Producing 7-Carbon Monomers” (INVISTA North America S.á.r.l., priority 2014, published 2016)",
  "molecules": {"B1": {"name": "SEQ ID NO: 4: Segniliparus rugosus carboxylate reductase, N-terminal HIS tagged (protein, listed as Segniliparus rugosus)", "chain": "MGDGEERAKRFFQRIGELSATDPQFAAAAPDPAVVEAVSDPSLSFTRYLDTLMRGYAERPALAHRVGAGYETISYGELWARVGAIAAAWQADGLAPGDFVATVGFTSPDYVAVDLAAARSGLVSVPLQAGASLAQLVGILEETEPKVLAASASSLEGAVACALAAPSVQRLVVFDLRGPDASESAADERRGALADAEEQLARAGRAVVVETLADLAARGEALPEAPLFEPAEGEDPLALLIYTSGSTGAPKGAMYSQRLVSQLWGRTPVVPGMPNISLHYMPLSHSYGRAVLAGALSAGGTAHFTANSDLSTLFEDIALARPTFLALVPRVCEMLFQESQRGQDVAELRERVLGGRLLVAVCGSAPLSPEMRAFMEEVLGFPLLDGYGSTEALGVMRNGIIQRPPVIDYKLVDVPELGYRTTDKPYPRGELCIRSTSLISGYYKRPEITAEVFDAQGYYKTGDVMAEIAPDHLVYVDRSKNVLKLSQGEFVAVAKLEAAYGTSPYVKQIFVYGNSERSFLLAVVVPNAEVLGARDQEEAKPLIAASLQKIAKEAGLQSYEVPRDFLIETEPFTTQNGLLSEVGKLLRPKLKARYGEALEARYDEIAHGQADELRALRDGAGQRPVVETVVRAAVAISGSEGAEVGPEANFADLGGDSLSALSLANLLHDVFEVEVPVRIIIGPTASLAGIAKHIEAERAGASAPTAASVHGAGATRIRASELTLEKFLPEDLLAAAKGLPAADQVRTVLLTGANGWLGRFLALEQLERLARSGQDGGKLICLVRGKDAAAARRRIEETLGTDPALAARFAELAEGRLEVVPGDVGEPKFGLDDAAWDRLAEEVDVIVHPAALVNHVLPYHQLFGPNVVGTAEIIRLAITAKRKPVTYLSTVAVAAGVEPSSFEEDGDIRAVVPERPLGDGYANGYGNSKWAGEVLLREAHELVGLPVAVFRSDMILAHTRYTGQLNVPDQFTRLVLSLLATGIAPKSFYQQGAAGERQRAHYDGIPVDFTAEAITTLGAEPSWFDGGAGFRSFDVFNPHHDGVGLDEFVDWLIEAGHPISRIDDHKEWFARFETAVRGLPEAQRQHSLLPLLRAYSFPHPPVDGSVYPTGKFQGAVKAAQVGSDHDVPHLGKALIVKYADDLKALGLL", "modifications": "N-terminal His tag", "notes": "Segniliparus rugosus carboxylate reductase, N-terminal HIS tagged"}, "B2": {"name": "SEQ ID NO: 5: Mycobacterium massiliense carboxylate reductase, N-terminal HIS tagged (protein)", "chain": "MTNETNPQQEQLSRRIESLRESDPQFRAAQPDPAVAEQVLRPGLHLSEAIAALMTGYAERPALGERARELVIDQDGRTTLRLLPRFDTTTYGELWSRTTSVAAAWHHDATHPVKAGDLVATLGFTSIDYTVLDLAIMILGGVAVPLQTSAPASQWTTILAEAEPNTLAVSIELIGAAMESVRATPSIKQVVVFDYTPEVDDQREAFEAASTQLAGTGIALETLDAVIARGAALPAAPLYAPSAGDDPLALLIYTSGSTGAPKGAMHSENIVRRWWIREDVMAGTENLPMIGLNFMPMSHIMGRGTLTSTLSTGGTGYFAASSDMSTLFEDMELIRPTALALVPRVCDMVFQRFQTEVDRRLASGDTASAEAVAAEVKADIRDNLFGGRVSAVMVGSAPLSEELGEFIESCFELNLTDGYGSTEAGMVFRDGIVQRPPVIDYKLVDVPELGYFSTDKPHPRGELLLKTDGMFLGYYKRPEVTASVFDADGFYMTGDIVAELAHDNIEIIDRRNNVLKLSQGEFVAVATLEAEYANSPVVHQIYVYGSSERSYLLAVVVPTPEAVAAAKGDAAALKTTIADSLQDIAKEIQLQSYEVPRDFIIEPQPFTQGNGLLTGIAKLARPNLKAHYGPRLEQMYAEIAEQQAAELRALHGVDPDKPALETVLKAAQALLGVSSAELAADAHFTDLGGDSLSALSFSDLLRDIFAVEVPVGVIVSAANDLGGVAKFVDEQRHSGGTRPTAETVHGAGHTEIRAADLTLDKFIDEATLHAAPSLPKAAGIPHTVLLTGSNGYLGHYLALEWLERLDKTDGKLIVIVRGKNAEAAYGRLEEAFDTGDTELLAHFRSLADKHLEVLAGDIGDPNLGLDADTWQRLADTVDVIVHPAALVNHVLPYNQLFGPNVVGTAEIIKLAITTKIKPVTYLSTVAVAAYVDPTTFDEESDIRLISAVRPIDDGYANGYGNAKWAGEVLLREAHDLCGLPVAVFRSDMILAHSRYTGQLNVPDQFTRLILSLIATGIAPGSFYQAQTTGERPLAHYDGLPGDFTAEAITTLGTQVPEGSEGFVTYDCVNPHADGISLDNFVDWLIEAGYPIARIDNYTEWFTRFDTAIRGLSEKQKQHSLLPLLHAFEQPSAAENHGVVPAKRFQHAVQAAGIGPVGQDGTTDIPHLSRRLIVKYAKDLEQLGLL", "modifications": "N-terminal His tag; Mycobacterium massiliense", "notes": "Mycobacterium massiliense carboxylate reductase, N-terminal HIS tagged"}},
  "key": {"[1]": {"assay": "carboxylate reductase activity: pimelate to pimelate semialdehyde (NADPH consumption, A340)", "format": "biochemical", "conditions": "purified enzyme enhanced by sfp gene product, 2 mM pimelate, pH 7.5, room temperature, 20 min; against the empty vector control (FIG. 8)", "method": "A nucleotide sequence encoding a HIS-tag was added to the nucleic acid sequences from Segniliparus rugosus and Segniliparus rotundus that encode the carboxylate reductases of SEQ ID NOs: 4 (EFV11917.1) and 6 (ADG98140.1), respectively (see FIG. 6), such that N-terminal HIS tagged carboxylate reductases could be produced. Each of the modified genes was cloned into a pET Duet expression vector along with a sfp gene encoding a HIS-tagged phosphopantetheine transferase from Bacillus subtilis, both under the T7 promoter. Each expression vector was transformed into a BL21[DE3] E. coli host and the resulting recombinant E. coli strains were cultivated at 37° C. in a 250 mL shake flask culture containing 50 mL LB media and antibiotic selection pressure, with shaking at 230 rpm. Each culture was induced overnight at 37° C. using an auto-induction media.\nThe pellet from each induced shake flask culture was harvested via centrifugation. Each pellet was resuspended and lysed via sonication, and the cell debris was separated from the supernatant via centrifugation. […]\nEnzyme activity assays (i.e., from pimelate to pimelate semialdehyde) were performed in triplicate in a buffer composed of a final concentration of 50 mM HEPES buffer (pH=7.5), 2 mM pimelate, 10 mM MgCl2, 1 mM ATP and 1 mM NADPH. […] The consumption of NADPH was monitored by absorbance at 340 nm. […]"}, "[2]": {"assay": "carboxylate reductase activity: N7-acetyl-7-aminoheptanoate to N7-acetyl-7-aminoheptanal (NADPH consumption, A340)", "format": "biochemical", "conditions": "purified enzyme enhanced by sfp gene product, 2 mM N7-acetyl-7-aminoheptanoate, pH 7.5, room temperature, 20 min; against the empty vector control (FIG. 10)", "method": "The activity of each of the N-terminal His-tagged carboxylate reductases of SEQ ID NOs: 3, 5, and 6 (see Examples 2 and 3, and FIG. 6) for converting N7-acetyl-7-aminoheptanoate to N7-acetyl-7-aminoheptanal was assayed in triplicate in a buffer composed of a final concentration of 50 mM HEPES buffer (pH=7.5), 2 mM N7-acetyl-7-aminoheptanoate, 10 mM MgCl2, 1 mM ATP, and 1 mM NADPH. The assays were initiated by adding purified carboxylate reductase and phosphopantetheine transferase or the empty vector control to the assay buffer containing the N7-acetyl-7-aminoheptanoate then incubated at room temperature for 20 min. The consumption of NADPH was monitored by absorbance at 340 nm."}},
  "data": [
    {"molecule": "B1", "values": [
      {"measurement": "acceptance of pimelate as substrate (NADPH consumption)", "setting": "[1]", "result": "accepted pimelate as substrate"}
    ]},
    {"molecule": "B2", "values": [
      {"measurement": "acceptance of N7-acetyl-7-aminoheptanoate as substrate (NADPH consumption)", "setting": "[2]", "result": "accepted N7-acetyl-7-aminoheptanoate as substrate"}
    ]}
  ]
}
